The test system of the data set is MS2 coat protein. The data set is described as follows: apparent KD of MS2 coat protein; higher = weaker reporter binding. Conditions: Eterna round: R107. In short, it runs like this:
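Normalised binding curves from single clusters were fitted, and the median fit for each design is given as apparent KD. The clusters held designed RNA switches transcribed on-chip from Illumina sequencing clusters. These were titrated with SNAP-549-labelled MS2 coat protein (twofold steps from 0.7 or 1.5 nM to 3 µM, 0.8–1.5 h to 10–20 min per step) in 100 mM Tris-HCl pH 7.5, 80 mM KCl, 4 mM MgCl2, without or with constant ligand.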

[1] abbreviates: input ligand: theophylline 20 uM.
Where [2] appears, read: input ligand: tryptophan 2.4 mM.
The mark [3] stands for this setting: input ligand: theophylline 2 mM.

As for “GGGUAUGAUCCGGAUACCAGCGAACAUGAGGAUCACCCAUGUGACCUAAGAUAGGCUCUACGCCCUUGGCAGCCGCGAUCGCGUU [Same State Theophylline B GF8]”, the “apparent KD of MS2 coat protein” value is 21.7 nM (input ligand: arginine 13.2 mM), 32 nM under setting [1] and 29 nM under setting [2].
Turning to “CUACAUUUGUAGAAACCGGUCAACAUUAUUCGAGGACCGGUACGGCCGCCACUCGUAUAUUUUAAUACAUGAGGAUCACCCAUGU [Tryptophan A 6]”, the “apparent KD of MS2 coat protein” value by setting is: (input ligand: arginine 13.2 mM) 12.3 nM; under setting [1], 14.2 nM; under setting [3], 13.6 nM.
In the case of “UCCAUCGGCGGAAGCCGAUGGUUUACAGAAGGAGCGUGGAUUAACACAGGUAGGUCGCUGGACAUGAGGAUCACCCAUGUGAUAG [SSAA #6]”, the “apparent KD of MS2 coat protein” value (input ligand: arginine 13.2 mM) was 40.1 nM; the “apparent KD of MS2 coat protein” value (input ligand: none) is 60.4 nM; the “apparent KD of MS2 coat protein” value under setting [1] came to 117 nM; the “apparent KD of MS2 coat protein” value under setting [3] was 60.4 nM; the “apparent KD of MS2 coat protein” value under setting [2] came to 55 nM.
For “UUAGUAACGACGGCCGCCACUGAAUUUGAACAUGAGGAUCACCCAUGUAGAGAUCCUAGAAUAAACAGGACCGGGUCUGAUAAUG [Exclusion Tryptophane B GF3]”, the “apparent KD of MS2 coat protein” value was determined as 80.8 nM (input ligand: arginine 13.2 mM), 139 nM under setting [1] and 120 nM under setting [3].
For the sequence “ACUAGGCUCGGAAACGAGCCUAGGACAGAAGGAGCGUGGAUUAACACAGGUAGGUCGCUGACAUGAGGAUCACCCAUGUAUUUAU [SSAA #5]”, the “apparent KD of MS2 coat protein” value reads like this: (input ligand: arginine 13.2 mM) 19.9 nM; (input ligand: none) 27.3 nM; under setting [1], 31.2 nM; under setting [3], 25.6 nM; under setting [2], 21.9 nM.
For “AGGGAACAUGAGGAUCACCCAUGUGCCGAUACCAGUGAUUUUCAGCACCCUUGGCAGCGGAACCUUUGUUAUAUUAUUCUUAGGG [theeternabot_sameState_MS2_Theo_A_25]”, the “apparent KD of MS2 coat protein” value by setting is: (input ligand: arginine 13.2 mM) 32.5 nM; under setting [1], 42.4 nM; under setting [2], 41.2 nM.
As for “UGUAUGUGAUCUGAUACCAGCGUUGAUAACCUGAGGAUCACCCUGGUAAAGGCGAAAGCCCGCCCUUGGCAGCAGAUCGCAUACU”, the “apparent KD of MS2 coat protein” value came out at 182 nM (input ligand: arginine 13.2 mM); 611 nM (input ligand: none); 280 nM under setting [1]; 24.9 nM under setting [3]; 787 nM under setting [2].
As to “UGAUCCUAGACUGAUACCAGUCAUGAGUACAUGAGGAUCACCCAUGUCCAGGGACUCAAUGACCCUUGGCAGCAGAACCUAGUUC [Theo B SS t7]”, the “apparent KD of MS2 coat protein” value (input ligand: arginine 13.2 mM) is 155 nM, the “apparent KD of MS2 coat protein” value under setting [1] stood at 414 nM and the “apparent KD of MS2 coat protein” value under setting [2] was found to be 389 nM.
Consider “UGAUUGAACGGAAGGAGCGUGUAAGAACAAGAACAUGAGGAUCACCCAUGUAUUAAUUUAACACAGGUAGGUCGCCGAGAGAUUG [11.D]”, for which the “apparent KD of MS2 coat protein” value was found to be 16 nM (input ligand: arginine 13.2 mM); 14.6 nM (input ligand: none); 15.2 nM under setting [1]; 14 nM under setting [3]; 12 nM under setting [2].
In the case of “AGAUUCGACACGGCCGCCACUUGUGGUGGAUUAUCCAGUGUCGAACAUGAGGAUCACCCAUGUACAAGGACCGGGUGUUGAGUCU [XTryp B #19]”, the “apparent KD of MS2 coat protein” value by setting is: (input ligand: arginine 13.2 mM) 53.3 nM; under setting [1], 79.3 nM; under setting [3], 96.3 nM.
Turning to “AACCGAGGCUAUCCUCUAAGACUAUGUGAUACCAGAAUAAUUUUAUUCCCUUGGCAGCAUGACAUGAGGAUCACCCAUGUCUCUU [SSTheo A #8]”, the “apparent KD of MS2 coat protein” value (input ligand: arginine 13.2 mM) was determined as 21 nM, the “apparent KD of MS2 coat protein” value under setting [1] came out at 27.4 nM and the “apparent KD of MS2 coat protein” value under setting [2] is 26 nM.
With “GGCGGACUUAUAGAUACCAGCACAUGAGGAUCACCCAUGUUUGGUCGCACCUCAGUCCUGUGCCCUUGGCAGCUAUGAUAGAUUU [Leaatge]”, the “apparent KD of MS2 coat protein” value reads like this: (input ligand: arginine 13.2 mM) 16.9 nM; under setting [1], 33.4 nM; under setting [2], 16.1 nM.
Turning to “GUAAUUAUAAGAAGGAGCGUCGAAAAUGGGUAAACAUGAGGAUCACCCAUGUAAAGGGAACGACAGGUAGGUCGCUUAUGAUUAC [AstromonsSSArgB#22]”, the “apparent KD of MS2 coat protein” value is, setting by setting: (input ligand: arginine 13.2 mM) 76.5 nM; (input ligand: none) 185 nM; under setting [1], 164 nM; under setting [3], 274 nM; under setting [2], 202 nM.
Taken in the same sequence, the figures for “AACAUGUGGAUCACCCAUGUAUGUUCUGAAGGAGCGCCACAUGAGGCAGGUAGGUCGCAGGUACAUGAGGAUCACCCAUGUGUCA [Exclusion Arginine A 4]” were 54.5 nM, 192 nM, 111 nM, 193 nM and 158 nM.
As to “CGCGAGACGGCGGCCGCCACUUGUUGUUGGAAACUCGAGUUACAUGAGGAUCACCCAUGUCCUUAAAGGACCGGGCCGUAAGUAA [theeternabot_sameState_MS2_Trp_B_13]”, the “apparent KD of MS2 coat protein” value was determined as 99.3 nM (input ligand: arginine 13.2 mM), 198 nM under setting [1] and 219 nM under setting [3].
Take “CGGUACAUGAGGAUCACCCAUGUGUCGGAUACCAGAGAGCCGGCUCUCCCUUGGCAGCUGGUGCGACAUGAGGAUCACCCAUGUG [Exclusion Theophylline A GF19]”: the “apparent KD of MS2 coat protein” value is, setting by setting: (input ligand: arginine 13.2 mM) 29.4 nM; (input ligand: none) 61.6 nM; under setting [1], 58.5 nM; under setting [3], 67.4 nM; under setting [2], 53.3 nM.
The matching figures for “ACAUGAGGAUCACCCAUGUAUUACCGGGAAGGAGCGCGUAAGGACGCAGGUAGGUCGCUCGGCGUCGUGCCGGAAGGCACGACGA [#1 Same State - Arginine A Attempt #22 (HarryS)]”: 17.9 nM, 13.6 nM, 49.8 nM, 15.6 nM and 13.8 nM.
For “AGCCACUCGAGUGAUCCUCACGAGUGGCUACGAGGACCGGUACGGCCGCCACUCGAAUCAACAUGAGGAUCACCCAUGUAAUAAU [Brourdmod02]”, the “apparent KD of MS2 coat protein” value is, setting by setting: (input ligand: arginine 13.2 mM) 20.5 nM; (input ligand: none) 202 nM; under setting [1], 159 nM; under setting [3], 802 nM; under setting [2], 54.8 nM.
For the sequence “UGUAUGUGAUUUGAUACCAGUCCAACUGGUAAAACAUGAGGAUCACCCAUGUAAAAUUGGGACCCUUGGCAGCAAAUCGCAUACU [SSTheo B #21]”, the “apparent KD of MS2 coat protein” value is 144 nM (input ligand: arginine 13.2 mM), 346 nM under setting [1] and 534 nM under setting [2].
Regarding “CAGAACAUGAGGAUCACCCAUGUUAGGGAUACCAGCUCAGACAUGGGCCCUUGGCAGCUCUAUGGCUGACGAAAGUCAGCAUCUG [#16 SameState-TheophyllineA]”, the “apparent KD of MS2 coat protein” value (input ligand: arginine 13.2 mM) was 70.5 nM; the “apparent KD of MS2 coat protein” value (input ligand: none) is 41.7 nM; the “apparent KD of MS2 coat protein” value under setting [1] is 874 nM; the “apparent KD of MS2 coat protein” value under setting [3] was 3.01 nM; the “apparent KD of MS2 coat protein” value under setting [2] was 42.5 nM.
Turning to “AGCGACAUGCGUGAUACCAGCUACAUGAGGAUCACCCAUGUCAGUAGGAAACUGCUGUGUAGCCCUUGGCAGCACAGUGCAUGUC [Exclusion - Theophylline B (Freestyle 27)]”, the “apparent KD of MS2 coat protein” value by setting is: (input ligand: arginine 13.2 mM) 36 nM; under setting [1], 47.5 nM; under setting [2], 36.4 nM.
“AGUGUUAUAACUGAUACCAGACUUGCGCUUAAACAUGAGGAUCACCCAUGUAAAAUGGUUGUCCCUUGGCAGCAGAAAAUACACA [JR_SSTheophyB_Sub006]”: the “apparent KD of MS2 coat protein” value is 53.2 nM (input ligand: arginine 13.2 mM), 98 nM under setting [1] and 98.4 nM under setting [2].
For the sequence “GGCGUGGUCGGAAGGAGCGACAUGAGGAUCACCCAUGUCUCCCGUUAUGGGAGUUCCUUAGGUCAGGUAGGUCGCCGACUGCGGC [#1 Exclusion - Arginine B Attempt #22 (Inspired by Omei)]”, the “apparent KD of MS2 coat protein” value is, setting by setting: (input ligand: arginine 13.2 mM) 41.6 nM; (input ligand: none) 231 nM; under setting [1], 123 nM; under setting [3], 326 nM; under setting [2], 159 nM.
The matching figures for “UGGUGUAGGGUAAAUAGGAUUAGUACAGAAGGAGCGCGAAUAAACGCAGGUAGGUCGCUGGAAUAAACAUGAGGAUCACCCAUGU [Same State Arginine A GF 27]”: 17.4 nM, 19.2 nM, 27.4 nM, 21.5 nM and 20.7 nM.
In the case of “UGGCAGGAGUGAUCCUCCUGCCAAGGUGAUACCAGCAUCGAAAGAUGCCCUUGGCAGCACCAACAUGAGGAUCACCCAUGUAAUA [(MT)''-(M)'-(T')-(Theo)-(Ms2)_Design1/22_10]”, the “apparent KD of MS2 coat protein” value was determined as 34.1 nM (input ligand: arginine 13.2 mM), 177 nM under setting [1] and 104 nM under setting [2].
Taken in the same sequence, the figures for “UCAUAUUAGUGAGAUGUAAGGUAUCAUGAUACCAGUAGAUAAUUAUACCCUUGGCAGCAUAACAUGAGGAUCACCCAUGUACAUG [Ab]” were 23.1 nM, 21.3 nM and 19.8 nM.
In the case of “ACGUCUCGAAAACUCGUAGUAACAAUAGAUACCAGUAGCGAGAGUUACCCUUGGCAGCUACAUGAGGAUCACCCAUGUACGAGGA [XTheo A #27]”, the “apparent KD of MS2 coat protein” value by setting is: (input ligand: arginine 13.2 mM) 19.1 nM; under setting [1], 26 nM; under setting [2], 18.1 nM.

The values are drawn from the supplement of paper PMC9170038.
